Source: US10286070B2, “Oncostatin M (OSM) antagonists for preventing cancer metastasis and IL-6 related disorders” (Boise State University, priority 2013, dated 2019)
Entries after “also recorded” stand apart in the source; their conditions may differ.

Assays:
[1] = system: pSTAT3, pJNK, pERK, and pAKT signaling; experiment: Western blot analysis of downstream OSM signaling in MDA-MB-231 cell lysates; assay type: cell-based, human; conditions: MDA-MB-231 cells; 5 μM
[2] = system: Du145 and PC3+STAT3 human prostate cancer cells; experiment: OSM-induced detachment of human prostate cancer cells; assay type: cell-based; conditions: OSM 5 ng/mL, inhibitors 5 μM, 5 days
Protocol: FIGS. 15A and 15B. […] Detachment for FIG. 15A) Du145 and 15B) PC3+STAT3 human prostate cancer cells. 10,000 cells were plated in a 24-well plate in 1 mL complete media that was pre-incubated with OSM (5 ng/mL) and inhibitors (5 μM) for 1 hour. After 5 days, the detached cells were stained with Trypan Blue and counted using a hemocytometer.

IL-6 [3] = experiment: IL-6 ELISA on conditioned media of OSM treated 4T1.2 cells; assay type: cell-based, mouse; conditions: rmOSM 25 ηg/ml, 48 hours
Protocol: (§1) 1×10^5T47D, MDA-MB-231, MCF7, MDA-MB-468, or 4T1.2 cells were plated in multi-well plates in the presence or absence of OSM for […]. Conditioned media was collected, diluted 1:5 and an IL-6 ELISA was performed as according to the manufacturer's recommended instructions.
(§2) OSM induced IL-6 expression was studied on various cell lines including two ER+ cell lines, T47D and MCF7, and three ER− cell lines MDA-MB-468, MDA-MB-231, and 4T1.2 cells. rhOSM was used for the four human cell lines at a concentration of 25 ηg/ml while rmOSM was used for the 4T1.2 cells at a concentration of 25 ηg/ml. The cells were incubated in OSM for a total of 48 hours and IL-6 levels in the conditioned media was assessed by ELISA. […] In the 4T1.2 mouse mammary cancer cells, OSM induced IL-6 by approximately 4-fold (FIG. 7). To test if OSM induced IL-6 in vivo, tumors from the MDA-MB-231 injected mice were lysed, homogenized, and the IL-6 levels were analyzed by ELISA.

IL-6 [4] = experiment: IL-6 ELISA on conditioned media of OSM treated human breast cancer cell lines; assay type: cell-based; conditions: OSM 25 ηg/ml, 48 hours
Protocol: as §1, §2

[5] = system: PC-3 prostate cancer cell line; experiment: Proliferation and detachment of PC-3 cells treated with OSM; assay type: cell-based, human; conditions: OSM 17.5 ng/ml
Protocol: (§3) Prostate cancer cell lines DU-145 and PC-3 were plated in triplicate in complete RPMI media at a cell density of 1,000 cells/ml and allowed to adhere overnight. Cells were treated the next day with OSM at a concentration of 17.5 ηg/ml (untreated cells were used as a control). Both detached cells and total cells were counted on days 1, 3, 5, 7, and 9. Detached cells were collected, stained with trypan blue and viable cells were counted using a hemocytometer. Adherent cells were trypsinized, stained with trypan blue and viable cells were counted on a hemocytometer. To look at the effects of OSM on prostate cancer cell proliferation, the number of viable detached cells and adherent cells were added together to determine the total number of cells.

[6] = system: MDA-MB-231 D3H2LN luc2 cells; experiment: MDA-MB-231 D3H2LN luc2 orthotopic xenograft with peri-tumoral OSM injections; assay type: in vivo, mouse
Protocol: For xenograft models, six-week-old female nude mice were obtained from the National Cancer Institute's Animal Production Facility (Frederick, Md.). Non-surgical orthotopic injections were performed using 2.0×10^6 cells diluted in 50 μL of PBS containing 10% medium. When the tumors became palpable, mice were randomized into groups and began receiving per-tumoral injections. For peri-tumoral injections, either 50 μL PBS or 1 μg recombinant full length human OSM (Peprotech) diluted in 50 μL PBS was injected into the area surrounding the tumor three times per week until the end point of the experiment.
Detection of human circulating tumor cells (CTCs) in mouse blood was performed. Human DNA standard curve was prepared by adding a specified number of human MDA-MB-231 cells into mouse blood and the DNA isolated for use in the qPCR reactions. Whole DNA was isolated from 100 μl of whole blood collected from mice at the end of the experiment. DNA was isolated using DNeasy Blood & Tissue kit (Quiagen Cat#) using the manufacturer's standard instructions. DNA concentrations were normalized between each sample and 4.5 ng of DNA was added to each 25 μl qPCR reaction. qPCR reaction mixture was obtained from the GoTaq qPCR Master Mix (Promega, Cat#TM318, Madison Wis.), and reaction mixtures were prepared in accordance with manufacturer recommendations. 0.125 μl of 100 μM primers for human Alu fragment, and for GAPDH was added to each reaction. The primer sequences used for Alu was (s:[…] a:[…]) and for
GAPDH the sequence used was (s: […]; a: […]). The qPCR reaction was done with SYBR green chemistry using a CXR reference dye and ran on an Applied Biosystems AB7300 real-time thermocycler. Reaction conditions were: 50° C. for 2 minutes, 95° C. for 3 minutes and 40 cycles of: (95° C. 00:15, 60° C. 00:30, 72° C. 00:30) and fluorescence measurements were taken during the annealing temperature stage (60° C.). cT values were determined and the final results were normalized to GAPDH signal levels.
BLI of live animals was initiated at 13 days after cell line injection and performed weekly. Three to five mice were imaged at one time. Ex vivo organs were also imaged using BLI. Both procedures follow our previously described protocols.
To determine the influence of OSM in human breast cancer, we used a xenograft model. MDA-MB-231 D3H2LN luc2 cells were injected into the fourth mammary fat pads of female nude mice. After the tumors were palpable, OSM (1 μg) or PBS were injected peri-tumorally 3 times per week (FIG. 6A), and mice were monitored until the end-point criteria were met. Tumor size was measured using calipers three times per week for the duration of the experiment and expressed as tumor volume (mm^3)=[…]. […] Next, BLI intensity of the cells was assessed in vivo. The BLI intensities of the tumors from both groups were similar with variations in intensities in both groups (FIG. 6C). A few mice in both groups had lower BLI intensities due to tumor necrosis.
Ex vivo analysis of the lungs was performed. […] Next, quantification of the BLI intensities of the lungs was performed.
Our studies on detecting CTCs involve the usage of the Alu transposon repeats for detecting human cells in mouse blood, and with colony forming assays that detects all transformed cells in the blood. […] In order to detect circulating tumor cells in the mouse circulatory system, DNA was isolated from mouse blood, and human alu fragment concentrations were determined in the blood by qPCR. […]

[7] = system: DU-145 prostate cancer cell line; experiment: Matrigel invasion assay, DU-145; assay type: cell-based, human
Protocol: (§4) FIG. 14. Invasive Potential for the DU-145 and PC-3 Prostate Cancer Cell Lines.
(§5) Invasion potential was also measured. OSM increased the invasion potential of both DU-145 and PC-3 cell lines (FIG. 14).

[8] = system: DU-145 prostate cancer cell line; experiment: Proliferation, detachment and morphology of DU-145 cells treated with OSM; assay type: cell-based, human; conditions: OSM 17.5 ng/ml
Protocol: as §3
The Epithelial-Mesenchymal Transition (EMT) was also measured. During the proliferation and detachment assays detailed above, micrographs of the DU-145 cells were taken at day 5 before cells were collected and counted.

[9] = system: PC-3 prostate cancer cell line; experiment: Matrigel invasion assay, PC-3; assay type: cell-based, human
Protocol: as §4, §5

[10] = system: OSM-induced phosphorylation of STAT3 on Tyr-705 (pSTAT3); experiment: pSTAT3 ELISA after OSM stimulation; assay type: cell-based; conditions: human breast cancer cells; OSM 25 ng/ml, 30 minutes
From the text: FIGS. 16A-16D. […] This method can be used for in vitro screening of lead compounds that inhibit OSM signaling. […] Cell lysates were collected and pSTAT3 levels were measure by ELISA.
Next an enzyme-linked immunosorbent assay (ELISA) for analyzing initial OSM-induced phosphorylation of STAT3 on Tyr-705 (pSTAT3) will be employed for the initial screen. […] The ability of the top 100 OSM-SMIs to inhibit OSM-OSMR interactions that result in expression of pSTAT3 will be evaluated by this assay and cells will be pretreated with the OSM-SMIs for 2 hours prior to the addition of OSM. As positive controls, neutralizing antibodies to human OSM or human gp130 will establish baseline pSTAT3 levels in the ELISA assay (FIG. 16A).
Actual physiological levels of OSM may be much lower than the nanogram levels used here. […] Therefore, testing inhibitors using lower concentrations of OSM may better allow for the detection of Effects at physiologically relevant concentrations.
Additionally, a functional dose response curve for OSM-SMI activity will be generated through 2 log units of concentration of compounds and used to establish the dynamic range of OSM-SMI activity. This will be used to determine the half maximal inhibitory concentration (IC50) as well as the minimum effective concentration (Ceff) for each compound.

O=[N+]([O-])c1c(/C=N/Nc2ccccc2)oc(-c2ccc3c(c2)OCO3)c1-c1ccc2c(c1)OCO2 [OSM-SMI-10]
inhibition of OSM downstream signaling [1]: inhibited signaling to various extents
OSM-induced detachment [2]: decrease OSM-induced detachment

Cc1nc(C(N)=S)sc1C(=O)CC(=O)C(=O)Nc1nc2ccccc2[nH]1 [OSM-SMI-11]
inhibition of OSM downstream signaling [1]: inhibited signaling to various extents
OSM-induced detachment [2]: decrease OSM-induced detachment

B1: rmOSM: recombinant mouse OSM used for the 4T1.2 cells (protein, UniProt P53347 25-206, looked up)
Oncostatin-M: NRGCSNSSSQLLSQLQNQANLTGNTESLLEPYIRLQNLNTPDLRAACTQHSVAFPSEDTLRQLSKPHFLSTVYTTLDRVLYQLDALRQKFLKTPAFPKLDSARHNILGIRNNVFCMARLLNHSLEIPEPTQTDSGASRSTTTPDVFNTKIGSCGFLWGYHRFMGSVGRVFREWDDGSTRSRR
IL-6 induction by OSM (IL-6 [3]): approximately 4 fold

B2: OSM: Oncostatin M, IL-6 family cytokine; recombinant human OSM used as stimulus on cells and by peri-tumoral injection (protein, listed as Homo sapiens)
chain: MGVLLTQRTLLSLVLALLFPSMASMAAIGSCSKEYRVLLGQLQKQTDLMQDTSRLLDPYIRIQGLDVPKLREHCRERPGAFPSEETLRGLGRRGFLQTLNATLGCVLHRLADLEQRLPKAQDLERSGLNIEDLEKLQMARPNILGLRNNIYCMAQLLDNSDTAEPTKAGRGASQPPTPTPASDAFQRKLEGCRFLHGYHRFMHSVGRVFSKWGESPNRSRRHSPHQALRKGVRRTRPSRKGKRLMTRGQLPR
IL-6 induction by OSM (IL-6 [4]; MCF7 cells (ER+)): did not change
IL-6 induction by OSM (IL-6 [4]; MCF7 cells (ER+), listed as rhOSM): did not induce IL-6
IL-6 induction by OSM (IL-6 [4]; MDA-MB-231 cells): 4-5 fold
IL-6 induction by OSM (IL-6 [4]; MDA-MB-231 cells, listed as rhOSM): approximately 4 fold
IL-6 induction by OSM (IL-6 [4]; MDA-MB-468 cells): 4-5 fold
IL-6 induction by OSM (IL-6 [4]; MDA-MB-468 cells, listed as rhOSM): approximately 5 fold
IL-6 induction by OSM (IL-6 [4]; T47D cells (ER+)): did not change
IL-6 induction by OSM (IL-6 [4]; T47D cells (ER+), listed as rhOSM): did not induce IL-6
detachment [5]: not and did not show increased detachment
proliferation [5]: not and did not show increased proliferation
IL-6 induction by OSM (IL-6 [3]): 4-5 fold
metastatic volume within the lungs ([6]; ex vivo analysis, peri-tumoral OSM versus PBS): larger metastatic volume
BLI intensities of the lungs, OSM injected group higher than PBS injected group ([6]; ex vivo lungs, orders of magnitude): 10^2
tumor volume versus PBS group ([6]; female nude mice, OSM 1 μg peri-tumorally 3 times per week): did not differ
ex vivo lung BLI intensity versus PBS injections ([6]; female nude mice, peri-tumoral OSM): 200 fold
increase in number of circulating tumor cells per 100 μl of mouse blood ([6]; human Alu qPCR, versus animals without OSM injections): 3.5 fold
invasion potential ([7]; OSM 17.5 ng/ml, 24 hours): increased invasion potential
treated cells showing an invasive potential ([7]; OSM treated DU-145 cells): Twenty three
detachment ([8]; 5 days, versus untreated cells): significantly increased; also recorded: increased detachment
proliferation ([8]; 5 days, versus untreated cells): significantly increased; also recorded: increased proliferation
morphology (EMT) ([8]; day 5): more mesenchymal morphology; also recorded: mesenchymal orphology characteristic of having undergone EMT
invasion potential ([9]; OSM 17.5 ng/ml, 24 hours): increased invasion potential
treated cells showing an invasive potential ([9]; OSM treated PC-3 cells): 21%
increase in invasive potential versus untreated ([9]; PC-3 cells pretreated with OSM for 72 hours): 4 fold
induction of pSTAT3 by OSM [10]: induced pSTAT3; also recorded: induce pSTAT3 expression
